{
  "source": "patent US20120100139A1",
  "about": "(APTEVO RESEARCH AND DEVELOPMENT, published 2012)",
  "molecules": {"B1": {"name": "xceptor including a CTLA4 ectodomain with the L104E A29Y mutations and an IL10 domain (Fc fusion)", "chain": "MHVAQPAVVLASSRGIASFVCEYASPGKYTEVRVTVLRQADSQVTEVCAATYMMGNELTFLDDSICTGTSSGNQVNLTIQGLRAMDTGLYICKVELMYPPPYYEGIGNGTQIYVIDPEPCPDSDLEPKSSDKTHTCPPCPAPEAAGAPSVFLFPPKPKDTLMISRTPEVTCVVVDVSHEDPEVKFNWYVDGVEVHNAKTKPREEQYNSTYRVVSVLTVLHQDWLNGKAYACAVSNKALPAPIEKTISKAKGQPREPQVYTLPPSRDELTKNQVSLTCLVKGFYPSDIAVEWESNGQPENNYKTTPPVLDSDGSFFLYSKLTVDKSRWQQGNVFSCSVMHEALHNHYTQKSLSLSPGQRHNNSSLNTGTQMAGHSPNSSPGQGTQSENSCTHFPGNLPNMLRDLRDAFSRVKTFFQMKDQLDNLLLKESLLEDFKGYLGCQALSEMIQFYLEEVMPQAENQDPDAKAHVNSLGENLKTLRLRLRRCHRFLPCENKSKAVEQVKNAFNKLQEKGIYKAMSEFDIFINYIEAYMTMKIRN", "notes": "the mutations are in the entry"}, "B2": {"name": "PDL2-Fc (Fc fusion)", "chain": "LFTVTVPKELYIIEHGSNVTLECNFDTGSHVNLGAITASLQKVENDTSPHRERATLLEEQLPLGKASFHIPQVQVRDEGQYQCIIIYGVAWDYKYLTLKVKASYRKINTHILKVPETDEVELTCQATGYPLAEVSWPNVSVPANTSHSRTPEGLYQVTSVLRLKPPPGRNFSCVFWNTHVRELTLASIDLQSQMEPRTHPTLEPKSSDKTHTCPPCPAPEAAGAPSVFLFPPKPKDTLMISRTPEVTCVVVDVSHEDPEVKFNWYVDGVEVHNAKTKPREEQYNSTYRVVSVLTVLHQDWLNGKAYACAVSNKALPAPIEKTISKAKGQPREPQVYTLPPSRDELTKNQVSLTCLVKGFYPSDIAVEWESNGQPENNYKTTPPVLDSDGSFFLYSKLTVDKSRWQQGNVFSCSVMHEALHNHYTQKSLSLSPG"}},
  "key": {"[1]": {"target": "CD86-mIgG (Ancell, Inc) (UniProt P42081)", "assay": "SPR (BIAcore T100), CD86-mIgG immobilized on CM5; first site"}, "[2]": {"target": "CD86-mIgG (Ancell, Inc) (UniProt P42081)", "assay": "SPR (BIAcore T100), CD86-mIgG immobilized on CM5; second site"}, "[3]": {"target": "CD86-mIgG (Ancell, Inc) (UniProt P42081)", "assay": "SPR (BIAcore T100), CD86-mIgG immobilized on CM5; steady-state equilibrium fit"}, "[4]": {"target": "T1, CD80-mIg (Ancell Catalog #510-020) (UniProt P33681 35-242)", "T1 construct": "Bought reagent; also called CD80-mIgG; sCD80", "T1 sequence (looked up)": "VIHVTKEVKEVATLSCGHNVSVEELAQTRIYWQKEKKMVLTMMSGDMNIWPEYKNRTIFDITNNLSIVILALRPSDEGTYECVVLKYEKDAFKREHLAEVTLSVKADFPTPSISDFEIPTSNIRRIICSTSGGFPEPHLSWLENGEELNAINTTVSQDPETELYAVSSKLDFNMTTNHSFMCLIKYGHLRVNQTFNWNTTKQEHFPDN", "assay": "SPR (BIAcore T100), CD80-mIgG immobilized on CM5; steady-state equilibrium fit", "experimental": "(§1) Surface plasmon resonance (SPR) measurements were performed on a BIAcore™ T100 SPR (Pharmacia Biotech AB, Uppsala) using HBS-EP+ (GE Healthcare) as a running buffer. […] CTLA4-containing constructs were injected for 150 seconds, at a flow rate of 10 μl/min, in a series of concentrations from 5 nM to 1 μM. Dissociation was monitored for 600 seconds, and the surface was regenerated by injecting 50 mM sodium citrate, 500 mM sodium chloride, pH 4.0, for 60 seconds. […] Data were analyzed using BiaEvaluation for the T100 software (version 2.0.1, GE Healthcare)."}, "[5]": {"target": "T2, CD86-mIgG (Ancell, Inc) (UniProt P42081 24-247, limits assumed)", "T2 construct": "Bought reagent", "T2 sequence (looked up)": "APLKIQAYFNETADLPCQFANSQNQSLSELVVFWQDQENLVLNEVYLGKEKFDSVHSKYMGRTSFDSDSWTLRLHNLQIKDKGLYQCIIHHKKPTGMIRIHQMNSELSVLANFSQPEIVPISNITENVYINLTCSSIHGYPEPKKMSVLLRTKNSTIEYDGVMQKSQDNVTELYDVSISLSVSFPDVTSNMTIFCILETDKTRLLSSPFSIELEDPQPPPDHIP", "assay": "SPR (BIAcore T100), CD86-mIgG immobilized on CM5; steady-state equilibrium fit"}, "[6]": {"target": "T1, CD80-mIg (Ancell Catalog #510-020)", "assay": "SPR (BIAcore T100), CD80-mIgG immobilized on CM5; bivalent analyte model, first site", "experimental": "as §1"}, "[7]": {"target": "T2, CD86-mIgG (Ancell, Inc)", "assay": "SPR (BIAcore T100), CD86-mIgG immobilized on CM5; bivalent analyte model, first site", "experimental": "SPR measurements were performed on a BIAcore™ T100 SPR (Pharmacia Biotech AB, Uppsala) using HBS-EP+ (GE Healthcare) as a running buffer. […] CTLA4-containing constructs were injected for 150 seconds, at a flow rate of 10 μl/min, in a series of concentrations from 4 nM to 10 μM. Dissociation was monitored for 600 seconds, and the surface was either regenerated by injecting 50 mM sodium citrate, 500 mM sodium chloride, pH 5.0, for 60 seconds (wild type CTLA4) or 10 mM glycine, pH 1.7 (L104E A29Y CTLA4). […] Data were analyzed using BiaEvaluation for the T100 software (version 2.0.1, GE Healthcare)."}, "[8]": {"target": "T1, CD80-mIg (Ancell Catalog #510-020)", "assay": "SPR (BIAcore T100), CD80-mIgG immobilized on CM5; bivalent analyte model, second site", "experimental": "as §1"}, "[9]": {"target": "T3, Murine CD86-mIgG (R&D Systems, Inc) (murine, UniProt P42082 24-244, limits assumed)", "T3 construct": "also called muCD86", "T3 sequence (looked up)": "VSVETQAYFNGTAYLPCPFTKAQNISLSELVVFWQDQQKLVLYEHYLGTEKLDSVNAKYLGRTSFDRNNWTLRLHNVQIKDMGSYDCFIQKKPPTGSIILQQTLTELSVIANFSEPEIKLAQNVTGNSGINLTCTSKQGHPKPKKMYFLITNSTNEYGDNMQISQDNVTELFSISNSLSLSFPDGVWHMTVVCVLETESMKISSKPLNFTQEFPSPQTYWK", "assay": "SPR (BIAcore T100), murine CD86-mIgG immobilized on CM5; bivalent analyte model, first site", "experimental": "(§2) SPR measurements were performed on a BIAcore™ T100 SPR (Pharmacia Biotech AB, Uppsala) using HBS-EP+ (GE Healthcare) as a running buffer. Murine CD86-mIgG (25 μg/mL in 10 mM sodium acetate, pH 4.0, R&D Systems, Inc) was directly immobilized onto a CM5 chip using standard amine coupling chemistry (Biacore Amine Coupling Kit, GE Healthcare), with final immobilization levels of 150, 493, and 746 Ru. CTLA4-containing constructs were injected for 150 seconds, at a flow rate of 10 μl/min, in a series of concentrations from 4 nM to 8 μM. Dissociation was monitored for 600 seconds (CTLA4 constructs) or 1200 seconds (GL1 constructs), and the surface was regenerated by injecting 10 mM glycine, pH 1.7, for 60 seconds. […] Data were analyzed using BiaEvaluation for the T100 software (version 2.0.1, GE Healthcare)."}, "[10]": {"target": "T3, Murine CD86-mIgG (R&D Systems, Inc)", "assay": "SPR (BIAcore T100), murine CD86-mIgG immobilized on CM5; bivalent analyte model, second site", "experimental": "as §2"}, "[11]": {"target": "T3, Murine CD86-mIgG (R&D Systems, Inc)", "assay": "SPR (BIAcore T100), murine CD86-mIgG immobilized on CM5; steady-state equilibrium, multiple Rmax fit", "experimental": "as §2"}, "[12]": {"target": "T4, PD1 ectodomain fused to a C-terminal AviTag, biotinylated (biotinylated on the AviTag with the BirA enzyme)", "T4 construct": "also called biotinylated PD1", "T4 chain": "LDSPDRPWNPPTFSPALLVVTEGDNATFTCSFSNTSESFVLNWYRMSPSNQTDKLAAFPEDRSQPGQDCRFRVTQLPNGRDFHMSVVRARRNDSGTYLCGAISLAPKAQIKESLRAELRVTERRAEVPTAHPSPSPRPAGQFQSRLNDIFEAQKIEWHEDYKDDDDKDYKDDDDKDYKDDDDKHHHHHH", "assay": "SPR (BIAcore T100), biotinylated PD1 captured on neutravidin; steady-state equilibrium fit", "experimental": "(§3) SPR measurements were performed on a BIAcore™ T100 SPR (Pharmacia Biotech AB, Uppsala) using HBS-P+ (GE Healthcare) as a running buffer. […] PDL1/2-containing constructs were injected for 120 seconds, at a flow rate of 30 μl/min, in a series of concentrations from 6 nM to 2 μM. Dissociation was monitored for 1200 seconds, and the surface was regenerated by injecting 50 mM NaOH, 1M NaCl for 30 seconds.\n(§4) Data were analyzed using BiaEvaluation for the T100 software (version 2.0.1, GE Healthcare)."}, "[13]": {"target": "T4, PD1 ectodomain fused to a C-terminal …", "assay": "SPR (BIAcore T100), biotinylated PD1 captured on neutravidin; bivalent analyte model, first site", "experimental": "as §3, §4"}},
  "data": [
    {"molecule": "muIL 10-Ig", "values": [
      {"measurement": "koff", "setting": "[1]", "result": 0.00018, "unit": "s⁻¹"},
      {"measurement": "kon", "setting": "[1]", "result": 94100, "unit": "M⁻¹ s⁻¹"},
      {"measurement": "Second Site ka", "setting": "[2]", "result": 0.0203, "unit": "s⁻¹"},
      {"measurement": "Second Site kd", "setting": "[2]", "result": 0.0722, "unit": "s⁻¹"},
      {"measurement": "Kd", "setting": "[3]", "result": 50.6, "unit": "nM"}
    ]},
    {"molecule": "B1", "values": [
      {"measurement": "Kd", "setting": "[4]", "result": 19.1, "unit": "nM"},
      {"measurement": "Kd", "setting": "[5]", "result": 670, "unit": "nM"},
      {"measurement": "koff", "setting": "[6]", "result": 0.00235, "unit": "s⁻¹"},
      {"measurement": "kon", "setting": "[6]", "result": 90800, "unit": "M⁻¹ s⁻¹"},
      {"measurement": "koff", "setting": "[7]", "result": 0.0091, "unit": "s⁻¹"},
      {"measurement": "kon", "setting": "[7]", "result": 45100, "unit": "M⁻¹ s⁻¹"},
      {"measurement": "Second Site ka", "setting": "[8]", "result": 0.00406, "unit": "s⁻¹"},
      {"measurement": "Second Site kd", "setting": "[8]", "result": 0.00706, "unit": "s⁻¹"},
      {"measurement": "koff", "setting": "[9]", "result": 0.0418, "unit": "s⁻¹"},
      {"measurement": "kon", "setting": "[9]", "result": 32100, "unit": "M⁻¹ s⁻¹"},
      {"measurement": "Second Site ka", "setting": "[10]", "result": 0.00026, "unit": "s⁻¹"},
      {"measurement": "Second Site kd", "setting": "[10]", "result": 0.00193, "unit": "s⁻¹"},
      {"measurement": "Kd", "setting": "[11]", "result": 870, "unit": "nM"}
    ]},
    {"molecule": "B2", "values": [
      {"measurement": "Kd", "setting": "[12]", "result": 42, "unit": "nM"},
      {"measurement": "koff", "setting": "[13]", "result": 0.00724, "unit": "s⁻¹"},
      {"measurement": "kon", "setting": "[13]", "result": 165000, "unit": "M⁻¹ s⁻¹"}
    ]}
  ]
}
